Test results published in patent US20220194999A1 (Janssen / Centocor, published 2022).

What was measured:
[1] = target: T1, HLA-A*02:01 class I complex (conditional p*HLA*02:01, biotinylated heavy chain with beta2-microglobulin) (human, biotinylated heavy chain); assay: UV peptide exchange, HLA class I ELISA, % of Pos peptide;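 as to Average %: Streptavidin-captured HLA complexes after exchange detected via HRP anti-human B2M antibody, absorbance read, colour scales with intact complex, normalized to exchange control peptide as 100%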;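 as to Exch I (%): Streptavidin-captured HLA complexes after exchange detected via HRP anti-human B2M antibody, absorbance read, colour scales with intact complex, normalized to exchange control peptide as 100%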;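 as to Exch II (%): Streptavidin-captured HLA complexes after exchange detected via HRP anti-human B2M antibody, absorbance read, colour scales with intact complex, normalized to exchange control peptide as 100%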
T1 construct: UV-labile peptide p* is cleaved and exchanged for the test peptide; also called HLA 2.1

[2] = target: T1, HLA-A*02:01 class I complex …; assay: as above; remark: listed apart in the source
[3] = target: T1, HLA-A*02:01 class I complex …; assay: UV peptide exchange, HLA class I ELISA; low end of the group, member by Table 4
From the text: The HLA class I ELISA is an enzyme immunoassay based on the detection of beta2-microglobulin (B2M) of (peptide-stabilized) HLA class I complexes. To this end streptavidin is bound onto polystyrene microtiter wells. After washing and blocking, HLA complex present in exchange reaction mixtures or ELISA controls is captured by the streptavidin on the microtiter plate via its biotinylated heavy chain. Non-bound material is removed by washing. Subsequently, horseradish peroxidase (HRP)-conjugated antibody to human B2M is added. […] In the latter case B2M is removed during the washing step. After removal of non-bound HRP conjugate by washing, a substrate solution is added to the wells. A colored product is formed in proportion to the amount of intact HLA complex present in the samples. After the reaction has been terminated by the addition of a stop solution, absorbance is measured in a microtiter plate reader. The absorbance is normalized to the absorbance of an exchange control peptide (represents 100%). Also, suboptimal HLA binding of peptides with a moderate to low affinity for HLA class I molecules can be detected by this ELISA technique
Coating wells of two NUNC MaxiSorp™ 96-well ELISA plates: only the contents of one coating buffer capsule were dissolved in 100 mL of distilled water (0.05 M carbonate-bicarbonate buffer, pH 9.6 at 25° C.). 46 μL of Streptavidin stock solution were added to 23 mL coating buffer. 100 μL of the Streptavidin stock solution were added to all wells. Each microtiter plate was covered with an adhesive seal and incubated overnight at room temperature (18-25° C.).

Row | Binder | Average % [1] [%] | Exch I (%) [1] [%] | Exch II (%) [1] [%] | Mutant Binding [2] [%] | average relative binding (%) [3] [%]
1 | VVPCEPPEV (also called M230) [TP53.Y220C mutant peptide VVPCEPPEV] | 33.5 | 29.4 | 37.5 | 33.5 | –
2 | ALNNMFCQL (also called M160) [TP53.K132N mutant peptide ALNNMFCQL] | 41.3 | 39.6 | 43.1 | 41.3 | 41 to 49
3 | LLGRNSFEM (also called M220) [TP53.V272M mutant peptide LLGRNSFEM] | 50.9 | 58.8 | 42.9 | 50.9 | –
